Experimental data reported in paper PMC9482650, “Quantitative fragmentomics allow affinity mapping of interactomes” (Nature Communications, 2022).
Blank lines part the entries; values can stand above or below the binder they belong to.

What was measured:
Assay in all cases: holdup assay
Design in all cases: key: below the threshold = too weak to quantify, mostly under pKd 3.1 to 4
[1] = target: Inadl_10, Q8NI35
[2] = target: Inadl_4, Q8NI35
[3] = target: FRMPD4, Q14CM0
[4] = target: T1, GRIP1_4, Q9Y3R0
T1 sequence (Q9Y3R0 467-571, limits assumed, looked up): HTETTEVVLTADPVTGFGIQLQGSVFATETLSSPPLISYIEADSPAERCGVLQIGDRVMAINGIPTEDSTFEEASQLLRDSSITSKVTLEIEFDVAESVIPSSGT

[5] = target: T2, SHANK1, Q9Y566
T2 sequence (Q9Y566 658-767, limits assumed, looked up): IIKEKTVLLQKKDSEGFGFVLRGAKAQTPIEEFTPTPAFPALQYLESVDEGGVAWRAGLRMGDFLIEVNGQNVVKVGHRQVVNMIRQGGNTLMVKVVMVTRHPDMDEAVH

[6] = target: T3, PDZD7_3, Q9H5P4
T3 sequence (Q9H5P4 857-944, limits assumed, looked up): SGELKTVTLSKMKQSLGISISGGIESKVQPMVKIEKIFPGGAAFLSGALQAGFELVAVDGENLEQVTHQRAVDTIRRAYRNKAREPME

[7] = target: MAGI3_2, Q5TCQ9
[8] = target: LNX1_3, Q8TBB1
[9] = target: T4, SIPA1L2, Q9P2F8
T4 sequence (Q9P2F8 945-1036, limits assumed, looked up): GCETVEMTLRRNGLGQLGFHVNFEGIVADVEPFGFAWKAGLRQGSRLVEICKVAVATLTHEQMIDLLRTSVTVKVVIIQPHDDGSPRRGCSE

[10] = target: T5, DFNB31_3, Q9P202
T5 sequence (Q9P202 811-907, limits assumed, looked up): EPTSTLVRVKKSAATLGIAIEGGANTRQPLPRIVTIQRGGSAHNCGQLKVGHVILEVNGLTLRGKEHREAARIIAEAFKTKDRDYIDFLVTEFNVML

[11] = target: Inadl_6, Q8NI35
[12] = target: Inadl_1, Q8NI35
[13] = target: NHERF4_2, Q86UT5
[14] = target: FRMPD3, Q5JV73
[15] = target: FRMPD2_1, Q68DX3
[16] = target: T6, PARD3B_1, Q8TEW8
T6 sequence (Q8TEW8 196-299, limits assumed, looked up): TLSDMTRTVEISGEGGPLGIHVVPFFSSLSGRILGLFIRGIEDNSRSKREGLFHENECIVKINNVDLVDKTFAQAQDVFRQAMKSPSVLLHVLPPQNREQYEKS

[17] = target: DLG2_3, Q15700
[18] = target: T7, MPDZ_5, O75970
T7 sequence (O75970 695-796, limits assumed, looked up): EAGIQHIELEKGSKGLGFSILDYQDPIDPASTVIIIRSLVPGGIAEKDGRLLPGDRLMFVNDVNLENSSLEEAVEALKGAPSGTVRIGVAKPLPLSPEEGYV

[19] = target: PDZRN4_1, Q6ZMN7
[20] = target: T8, LNX2_2, Q8N448
T8 sequence (Q8N448 334-432, limits assumed, looked up): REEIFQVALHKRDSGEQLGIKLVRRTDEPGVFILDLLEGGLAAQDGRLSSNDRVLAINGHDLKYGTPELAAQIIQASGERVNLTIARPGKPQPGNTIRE

[21] = target: MAGI2_3, Q86UL8
[22] = target: T9, GRIP1_5, Q9Y3R0
T9 sequence (Q9Y3R0 568-668, limits assumed, looked up): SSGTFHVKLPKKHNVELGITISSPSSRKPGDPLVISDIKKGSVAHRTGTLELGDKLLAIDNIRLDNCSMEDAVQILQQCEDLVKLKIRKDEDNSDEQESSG

[23] = target: PTPN3, P26045
[24] = target: NOS1, P29475
[25] = target: PDLIM1, O00151
[26] = target: T10, APBA1_2, Q02410
T10 sequence (Q02410 742-832, limits assumed, looked up): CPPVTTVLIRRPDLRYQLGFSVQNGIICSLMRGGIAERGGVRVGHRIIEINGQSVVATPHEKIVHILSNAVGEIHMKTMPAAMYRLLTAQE

[27] = target: T11, FRMPD1, Q5SYB0
T11 sequence (Q5SYB0 52-145, limits assumed, looked up): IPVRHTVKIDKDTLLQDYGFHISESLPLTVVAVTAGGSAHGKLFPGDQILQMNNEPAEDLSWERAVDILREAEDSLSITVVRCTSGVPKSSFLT

[28] = plain residues with an end cap or a label only (N-terminal biotin on a linker: ttds)
[29] = plain residues with an end cap or a label only (N-terminal biotin on a linker: ado-ado)

Chain of PTPN3, P26045 (P26045 505-587): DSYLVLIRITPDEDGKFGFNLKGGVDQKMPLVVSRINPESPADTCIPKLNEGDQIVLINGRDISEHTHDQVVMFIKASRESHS
Chain of FRMPD2_1, Q68DX3 (Q68DX3 770-861): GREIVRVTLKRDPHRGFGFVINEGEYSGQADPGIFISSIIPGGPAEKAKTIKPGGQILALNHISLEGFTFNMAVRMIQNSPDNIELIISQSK
Chain of PDZRN4_1, Q6ZMN7 (Q6ZMN7 213-318): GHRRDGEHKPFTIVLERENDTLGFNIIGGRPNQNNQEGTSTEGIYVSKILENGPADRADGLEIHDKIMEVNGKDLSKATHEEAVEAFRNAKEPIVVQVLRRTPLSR
Chain of NHERF4_2, Q86UT5 (Q86UT5 220-308): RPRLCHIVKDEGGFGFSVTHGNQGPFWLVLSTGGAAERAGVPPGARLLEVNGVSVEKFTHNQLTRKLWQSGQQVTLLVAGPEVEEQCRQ
Chain of FRMPD3, Q5JV73 (Q5JV73 12-100): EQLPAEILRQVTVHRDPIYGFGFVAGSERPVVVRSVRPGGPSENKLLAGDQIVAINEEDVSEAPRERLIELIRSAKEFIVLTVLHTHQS
Chain of NOS1, P29475 (P29475 9-101): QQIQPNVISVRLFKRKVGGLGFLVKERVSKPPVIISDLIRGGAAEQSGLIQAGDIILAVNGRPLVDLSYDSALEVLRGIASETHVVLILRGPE
Chain of PDLIM1, O00151 (O00151 1-87): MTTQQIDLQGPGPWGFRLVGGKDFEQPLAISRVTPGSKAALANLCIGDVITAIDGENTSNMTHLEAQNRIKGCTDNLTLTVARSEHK
Chain of MAGI2_3, Q86UL8 (Q86UL8 600-682): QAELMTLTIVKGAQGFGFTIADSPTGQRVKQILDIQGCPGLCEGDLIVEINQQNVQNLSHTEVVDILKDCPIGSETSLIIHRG
Chain of LNX1_3, Q8TBB1 (Q8TBB1 500-596): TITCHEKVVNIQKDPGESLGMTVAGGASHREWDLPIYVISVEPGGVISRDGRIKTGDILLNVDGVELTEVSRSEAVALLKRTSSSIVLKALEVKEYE
Chain of FRMPD4, Q14CM0 (Q14CM0 67-160): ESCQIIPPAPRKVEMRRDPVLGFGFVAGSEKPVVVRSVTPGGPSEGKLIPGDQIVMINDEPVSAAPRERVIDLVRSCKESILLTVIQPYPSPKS
Chain of MAGI3_2, Q5TCQ9 (Q5TCQ9 398-503): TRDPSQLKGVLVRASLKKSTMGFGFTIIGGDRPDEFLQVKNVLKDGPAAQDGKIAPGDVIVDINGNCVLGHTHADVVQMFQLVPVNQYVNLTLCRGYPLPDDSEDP
Chain of Inadl_4, Q8NI35 (Q8NI35 547-651): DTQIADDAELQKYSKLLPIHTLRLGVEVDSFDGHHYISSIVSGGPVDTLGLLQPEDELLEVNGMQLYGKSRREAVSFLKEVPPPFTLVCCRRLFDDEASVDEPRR
Chain of Inadl_10, Q8NI35 (Q8NI35 1673-1763): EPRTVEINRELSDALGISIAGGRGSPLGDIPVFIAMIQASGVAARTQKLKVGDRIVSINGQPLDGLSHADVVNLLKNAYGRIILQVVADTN
Chain of Inadl_1, Q8NI35 (Q8NI35 113-229): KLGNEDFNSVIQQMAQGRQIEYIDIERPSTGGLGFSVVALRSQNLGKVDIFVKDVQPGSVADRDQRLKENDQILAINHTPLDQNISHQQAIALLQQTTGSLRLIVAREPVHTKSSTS
Chain of Inadl_6, Q8NI35 (Q8NI35 1058-1167): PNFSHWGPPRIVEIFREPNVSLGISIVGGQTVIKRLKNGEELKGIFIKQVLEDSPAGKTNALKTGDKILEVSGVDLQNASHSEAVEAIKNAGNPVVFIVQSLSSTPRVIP

pKd [1, 28]: below the threshold
pKd [2, 28]: below the threshold
pKd [3, 28]: below the threshold
pKd [4, 28]: below the threshold
pKd [5, 28]: 3.57
pKd [6, 28]: below the threshold
pKd [7, 28]: below the threshold
pKd [8, 28]: below the threshold
pKd [9, 28]: below the threshold
pKd [10, 28]: below the threshold
pKd [11, 28]: below the threshold
pKd [12, 28]: below the threshold
pKd [13, 28]: below the threshold
pKd [14, 28]: below the threshold
pKd [15, 28]: below the threshold
pKd [16, 28]: below the threshold
pKd [17, 28]: 3.71
pKd [18, 28]: below the threshold
pKd [19, 28]: below the threshold
pKd [20, 28]: below the threshold
pKd [21, 28]: below the threshold
pKd [22, 28]: below the threshold
pKd [23, 28]: 3.78
pKd [24, 28]: below the threshold
pKd [25, 28]: below the threshold
pKd [26, 28]: 3.49
pKd [27, 28]: below the threshold
Binder: VNKVWDQSSV [CIT, O14578]

pKd [1, 29]: below the threshold
pKd [2, 29]: below the threshold
pKd [3, 29]: 4.09
pKd [4, 29]: below the threshold
pKd [5, 29]: below the threshold
pKd [6, 29]: below the threshold
pKd [7, 29]: below the threshold
pKd [8, 29]: 3.54
pKd [9, 29]: below the threshold
pKd [10, 29]: below the threshold
pKd [11, 29]: below the threshold
pKd [12, 29]: below the threshold
pKd [13, 29]: below the threshold
pKd [14, 29]: below the threshold
pKd [15, 29]: below the threshold
pKd [16, 29]: below the threshold
pKd [17, 29]: below the threshold
pKd [18, 29]: below the threshold
pKd [19, 29]: 3.73
pKd [20, 29]: below the threshold
pKd [21, 29]: below the threshold
pKd [22, 29]: 3.52
pKd [23, 29]: below the threshold
pKd [24, 29]: 3.78
pKd [25, 29]: 3.52
pKd [26, 29]: 3.66
pKd [27, 29]: below the threshold
Binder: EDLTKNHDEL [RCN1, Q15293]

pKd [1, 28]: below the threshold
pKd [2, 28]: below the threshold
pKd [3, 28]: below the threshold
pKd [4, 28]: below the threshold
pKd [5, 28]: below the threshold
pKd [6, 28]: below the threshold
pKd [7, 28]: 4.55
pKd [8, 28]: below the threshold
pKd [9, 28]: below the threshold
pKd [10, 28]: below the threshold
pKd [11, 28]: below the threshold
pKd [12, 28]: below the threshold
pKd [13, 28]: below the threshold
pKd [14, 28]: below the threshold
pKd [15, 28]: below the threshold
pKd [16, 28]: below the threshold
pKd [17, 28]: 3.86
pKd [18, 28]: below the threshold
pKd [19, 28]: below the threshold
pKd [20, 28]: below the threshold
pKd [21, 28]: below the threshold
pKd [22, 28]: below the threshold
pKd [23, 28]: 4.34
pKd [24, 28]: below the threshold
pKd [25, 28]: below the threshold
pKd [26, 28]: below the threshold
pKd [27, 28]: below the threshold
Binder: PKRPFVESNV [TANC2, Q9HCD6]

pKd [1, 29]: below the threshold
pKd [2, 29]: below the threshold
pKd [3, 29]: 3.92
pKd [4, 29]: below the threshold
pKd [5, 29]: 3.87
pKd [6, 29]: 5.03
pKd [7, 29]: below the threshold
pKd [8, 29]: below the threshold
pKd [9, 29]: below the threshold
pKd [10, 29]: below the threshold
pKd [11, 29]: 4.1
pKd [12, 29]: below the threshold
pKd [13, 29]: below the threshold
pKd [14, 29]: below the threshold
pKd [15, 29]: below the threshold
pKd [16, 29]: 4.57
pKd [17, 29]: below the threshold
pKd [18, 29]: below the threshold
pKd [19, 29]: 4.61
pKd [20, 29]: below the threshold
pKd [21, 29]: 3.48
pKd [22, 29]: below the threshold
pKd [23, 29]: 5.22
pKd [24, 29]: below the threshold
pKd [25, 29]: below the threshold
pKd [26, 29]: below the threshold
pKd [27, 29]: below the threshold
Binder: GFGEERESIL [KIDINS220, Q9ULH0]

pKd [1, 28]: below the threshold
pKd [2, 28]: below the threshold
pKd [3, 28]: below the threshold
pKd [4, 28]: below the threshold
pKd [5, 28]: 4.42
pKd [6, 28]: 5.63
pKd [7, 28]: 3.57
pKd [8, 28]: below the threshold
pKd [9, 28]: below the threshold
pKd [10, 28]: below the threshold
pKd [11, 28]: 4.13
pKd [12, 28]: below the threshold
pKd [13, 28]: below the threshold
pKd [14, 28]: below the threshold
pKd [15, 28]: below the threshold
pKd [16, 28]: below the threshold
pKd [17, 28]: 4.07
pKd [18, 28]: below the threshold
pKd [19, 28]: 4.84
pKd [20, 28]: below the threshold
pKd [21, 28]: below the threshold
pKd [22, 28]: below the threshold
pKd [23, 28]: 4.92
pKd [24, 28]: 3.55
pKd [25, 28]: below the threshold
pKd [26, 28]: below the threshold
pKd [27, 28]: below the threshold
Binder: LDSQIQETSI [MAP4, P27816]
